Measured values taken from patent publication US20200148733A1 (Pieris, published 2020).
Values joined by “and” are separate entries in the source; they are usually repeats but may differ in a detail not shown here. Equal values may be shown once. Values belong to the binder of their own block, whether it stands above or below them.

B5: human IL-23 (ligand)
chain 1: RAVPGGSSPAWTQCQQLSQKLCTLAWSAHPLVGHMDLREEGDEETTNDVPHIQCGDGCDPQGLRDNSQFCLQRIHQGLIFYEKLLGSDIFTGEPSLLPDSPVGQLHASLLGLSQLLQPEGHHWETQQIPSLSPSQPWQRLLLRFKILRSLQAFVAVAARVFAHGAATLSP
chain 2: IWELKKDVYVVELDWYPDAPGEMVVLTCDTPEEDGITWTLDQSSEVLGSGKTLTIQVKEFGDAGQYTCHKGGEVLSHSLLLLHKKEDGIWSTDILKDQKEPKNKTFLRCEAKNYSGRFTCWWLTTISTDLTFSVKSSRGSSDPQGVTCGAATLSAERVRGDNKEYEYSVECQEDSACPAAEESLPIEVMVDAVHKLKYENYTSSFFIRDIIKPDPPKNLQLKPLKNSRQVEVSWEYPDTWSTPHSYFSLTFCVQVQGKSKREKKDRVFTDKTSATVICRKNASISVRAQDRYYSSSWSEWASVPCS
notes: Heterodimer of p19 and p40; in the proliferation assays CAT # HZ-1254, HumanZyme; also called hIL-23; hIL23

Columns and labels:
human IL-23 [1] = molecular target: B5; experiment: competition ECL assay: biotinylated hIL-23 pre-incubated with varied binder, free hIL-23 captured on coated soluble hIL-23R (competitor); Example 28
human IL-23 [2] = molecular target: B5; experiment: competition ELISA (ECL): 0.2 nM biotinylated hIL-23 pre-incubated with varied mutein, free hIL-23 captured on coated soluble hIL-23R (competitor)
human IL-23 [3] = molecular target: B5; experiment: cell-based or functional assay
human IL-23 [4] = molecular target: B5; experiment: cell-based or functional assay; remark: listed apart in the source
[5] = molecular target: T1, lipocalin mutein SEQ ID NO: 9; experiment: solution competition ELISA: 10 nM SEQ ID NO: 9 pre-incubated with varied ligand, free mutein captured on immobilised biotinylated hIL-23 (competitor)
T1 construct: Human NGAL (lipocalin 2) mutein specific for IL-23p19
T1 chain: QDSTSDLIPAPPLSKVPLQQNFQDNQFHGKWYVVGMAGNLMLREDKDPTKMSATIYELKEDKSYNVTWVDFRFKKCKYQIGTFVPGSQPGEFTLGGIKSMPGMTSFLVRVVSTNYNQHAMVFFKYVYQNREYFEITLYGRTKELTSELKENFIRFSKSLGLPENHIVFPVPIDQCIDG
Description: (§1) In the following detailed experimental protocol, incubation and washing steps were performed as described above in the competition ELISA protocol. A 384-well plate suitable for fluorescence measurements (Greiner FLUOTRAC™ 600, black flat bottom, high-binding) was coated with 20 μl of Neutravidin at a concentration of 5 μg/ml in PBS over night at 4° C. After washing, the Neutravidin-coated wells were blocked with 100 μl PBS-T/BSA for 1h at room temperature.

[6] = molecular target: T2, lipocalin mutein SEQ ID NO: 10; experiment: solution competition ELISA: 1 nM SEQ ID NO: 10 pre-incubated with varied ligand, free mutein captured on immobilised biotinylated hIL-23 (competitor)
T2 construct: Human NGAL (lipocalin 2) mutein specific for IL-23p19
T2 chain: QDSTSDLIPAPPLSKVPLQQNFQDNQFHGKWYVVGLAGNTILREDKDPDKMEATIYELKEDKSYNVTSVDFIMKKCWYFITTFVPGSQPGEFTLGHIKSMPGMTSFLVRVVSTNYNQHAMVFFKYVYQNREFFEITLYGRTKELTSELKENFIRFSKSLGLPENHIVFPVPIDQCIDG
Description: as §1

[7] = molecular target: T3, lipocalin mutein SEQ ID NO: 5; experiment: solution competition ELISA: 0.5 nM SEQ ID NO: 5 pre-incubated with varied ligand, free mutein captured on immobilised biotinylated hIL-17A (competitor)
T3 construct: Human tear lipocalin (Tlc) mutein specific for IL-17A; also called Tlc mutein
Description: as §1, with “blocking buffer (PBS-T/BSA)” for “PBS-T/BSA”

human IL-23 [8] = molecular target: B5; experiment: competition ELISA (ECL), 0.2 nM biotinylated hIL-23, coated soluble hIL-23R
[9] = molecular target: T4, lipocalin mutein SEQ ID NO: 12; experiment: solution competition ELISA: 100 nM mutein (C-terminal Streptag) pre-incubated with varied ligand, free mutein captured on immobilised biotinylated hIL-23 (competitor)
T4 construct: Tear lipocalin mutein specific for IL-23p19
Description: as §1, with “blocking buffer (PBS-T/BSA)” for “PBS-T/BSA”
(§2) Note that the lipocalein muteins contained a C-terminal Streptag fusion to allow binding and subsequent detection with the aid of an anti-Streptag antibody.
(§3) The residual supernatants were discarded and 20 μl of HRP-conjugated anti-Streptag IgG antibody (Genscript) was added at a predetermined optimal concentration in PBS-T/BSA and incubated for 1 h at RT. After washing, 20 μl fluorogenic HRP substrate (Quantablue, Pierce) was added to each well, and the reaction allowed to proceed for 30 minutes.

[10] = molecular target: T5, lipocalin mutein SEQ ID NO: 13; experiment: as above
T5 construct: Tear lipocalin mutein specific for IL-23p19
Description: as §1, with “blocking buffer (PBS-T/BSA)” for “PBS-T/BSA”
as §2, §3

[11] = molecular target: T6, lipocalin mutein SEQ ID NO: 6; experiment: as above
T6 construct: Tear lipocalin mutein specific for IL-23p19
Description: as §1, with “blocking buffer (PBS-T/BSA)” for “PBS-T/BSA”
as §2, §3

human IL-17A = human IL-17A (human, UniProt Q16552 24-155); experiment: cell-based or functional assay
human IL-23 [12] = molecular target: B5; experiment: competition ELISA (ECL): 0.05 nM biotinylated hIL-23 pre-incubated with varied binder, free hIL-23 captured on coated soluble hIL-23R (competitor); single measurement
Description: (§4) The IgG antibody served as the positive control. […] The detailed experimental procedure was described as follows.
(§5) After washing, 60 μl MSD Read Buffer T (2×) was added to each well and the plate was read within 15 min.
(§6) The resulting Electrochemoluminescence (ECL) signal was measured with a suitable instrument such as the SECTOR Imager 2400 (Meso Scale Discovery).

human IL-23 [13] = molecular target: B5; experiment: competition ELISA (ECL): 0.05 nM biotinylated hIL-23 pre-incubated with varied binder, free hIL-23 captured on coated soluble hIL-23R (competitor); average of two measurements
Description: as §4, §5, §6

T4 sequence (chain, as listed by the source): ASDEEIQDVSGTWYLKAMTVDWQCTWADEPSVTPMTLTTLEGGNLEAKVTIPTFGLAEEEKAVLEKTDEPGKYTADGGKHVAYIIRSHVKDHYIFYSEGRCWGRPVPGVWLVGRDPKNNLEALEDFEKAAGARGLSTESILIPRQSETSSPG
T5 sequence (chain, as listed by the source): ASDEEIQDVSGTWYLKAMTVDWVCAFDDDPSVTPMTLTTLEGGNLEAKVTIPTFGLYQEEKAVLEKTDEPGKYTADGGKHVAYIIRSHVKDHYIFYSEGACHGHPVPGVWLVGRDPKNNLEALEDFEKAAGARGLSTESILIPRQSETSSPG
T3 sequence (chain, as listed by the source): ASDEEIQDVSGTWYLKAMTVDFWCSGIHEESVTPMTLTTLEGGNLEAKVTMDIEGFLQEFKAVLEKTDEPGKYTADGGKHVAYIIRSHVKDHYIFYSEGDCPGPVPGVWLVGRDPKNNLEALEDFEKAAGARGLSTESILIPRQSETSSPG
T6 sequence (chain, as listed by the source): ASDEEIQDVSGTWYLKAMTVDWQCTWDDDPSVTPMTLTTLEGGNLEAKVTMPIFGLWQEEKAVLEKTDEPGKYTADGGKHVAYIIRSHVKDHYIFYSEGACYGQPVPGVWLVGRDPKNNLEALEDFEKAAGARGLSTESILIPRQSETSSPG

IC50 (human IL-23 [1]): 0.27 nM
IC50 (human IL-23 [2]): 0.3 nM
EC50 [nM] AVERAGE, hIL-23-induced proliferation of Ba/F3 cells expressing hIL-23R and hIL-12Rβ1 (human IL-23 [3]): 0.6 nM
EC50 [nM] Exp 1, hIL-23-induced proliferation of Ba/F3 cells expressing hIL-23R and hIL-12Rβ1 (human IL-23 [3]): 0.3 nM
EC50 [nM] Exp 2, hIL-23-induced proliferation of Ba/F3 cells expressing hIL-23R and hIL-12Rβ1 (human IL-23 [3]): 0.4 nM
EC50 [nM] Exp 3, hIL-23-induced proliferation of Ba/F3 cells expressing hIL-23R and hIL-12Rβ1 (human IL-23 [3]): 1 nM
EC50 [nM] Exp 4, hIL-23-induced proliferation of Ba/F3 cells expressing hIL-23R and hIL-12Rβ1 (human IL-23 [3]): 0.7 nM
IC50, hIL-23-induced proliferation of Ba/F3 cells expressing hIL-23R and hIL-12Rβ1 (human IL-23 [4]): 3.8 nM
B1: lipocalin mutein SEQ ID NO: 15 (designed binder)
chain: QDSTSDLIPAPPLSKVPLQQNFQDNQFHGKWYVVGEAGNLLLREDKDPRKMTATIYELKEDKSYNVTRVEFGVKTYKYQIGTFVPGSQPGEFTLGGIKSMPGMTSFLVRVVSTNYNQHAMVFFKYVYQNREYFEITLYGRTKELTSELKENFIRFSKSLGLPENHIVFPVPIDQAIDG
notes: IL-23p19-specific mutein

IC50 [5]: 88 nM
IC50 [6]: 361 nM
B2: mouse IL-23 (ligand)
chain 1: VPRSSSPDWAQCQQLSRNLCMLAWNAHAPAGHMNLLREEEDEETKNNVPRIQCEDGCDPQGLKDNSQFCLQRIRQGLAFYKHLLDSDIFKGEPALLPDSPMEQLHTSLLGLSQLLQPEDHPRETQQMPSLSSSQQWQRPLLRSKILRSLQAFLAIAARVFAHGAATLTEPLVPTA
chain 2: MWELEKDVYVVEVDWTPDAPGETVNLTCDTPEEDDITWTSDQRHGVIGSGKTLTITVKEFLDAGQYTCHKGGETLSHSHLLLHKKENGIWSTEILKNFKNKTFLKCEAPNYSGRFTCSWLVQRNMDLKFNIKSSSSSPDSRAVTCGMASLSAEKVTLDQRDYEKYSVSCQEDVTCPTAEETLPIELALEARQQNKYENYSTSFFIRDIIKPDPPKNLQMKPLKNSQVEVSWEYPDSWSTPHSYFSLKFFVRIQRKKEKMKETEEGCNQKGAFLVEKTSTEVQCKGGNVCVQAQDRYYNSSCSKWACVPCRVRS
notes: also called mIL-23

IC50 [7]: 0.3 nM
B3: cynomolgus monkey IL-17A (ligand)
chain: GIAIPRNSGCPNSEDKNFPRTVMVNLNIHNRNTSTNPKRSSDYYNRSTSPWNLHRNEDPERYPSVIWEAKCRHLGCVKADGNVDYHMNSVPIQQEILVLRREPRHCPNSFRLEKILVSVGCTCVTPIVHHVA
notes: also called cIL-17A; cIL-17-A

B4: negative control SEQ ID NO: 11 (designed binder)
chain: QDSTSDLIPAPPLSKVPLQQNFQDNEFHGKWYVVGLAGNAILREDKDPQKMYATIYELKEDKSYNVTSVLFRKKKCDYWIRTFVPGSQPGEFTLGNIKSYPGLTSYLVRVVSTNYNQHAMVFFKKVSQNREYFKITLYGRTKELTSELKENFIRFSKSLGLPENHIVFPVPIDQCIDG
binding result (human IL-23 [8]): no binding (tested: starting concentration 500 nM)

Binder: B5
IC50 [5]: 55 nM
IC50 [6]: 1.4 nM
IC50 [9]: 66 nM
IC50 [10]: 24 nM
IC50 [11]: 89 nM

IC50, hIL-17A-induced secretion of G-CSF in U87-MG cells (human IL-17A): 0.6 nM
B6: benchmark antibody 2 (antibody, human IgG4, kappa, V domains shown)
VH: QVQLVQSGAEVKKPGSSVKVSCKASGYSFTDYHISWVRQAPGQGLEWMGVINPEYGTTDYNQRFKGRVTITADESTSTAYMELSSLRSEDTAVYYCARYDYFTGTGAYWGQGTLVTVSS
VL: DIVMTQTPLSLSVTPGQPASISCRSSQSLKHSRGNTFLHWYLQKPGQSPQLLIYKVSNRFIGVPDRFSGSGSGTDFTLKISRVEAEDVGVYYCSQSTHYPFTFGQGTKLEIKR

IC50 (human IL-23 [12]): 0.22 nM and 0.29 nM
IC50 (human IL-23 [13]): 0.26 nM
B7: IgG antibody (comprising the amino acids shown in SEQ ID NOs: 51 and 52) (antibody, V domains shown)
VH: QVQLVQSGAEVKKPGASVKVSCKASGYIFITYWMTWVRQAPGQGLEWMGQIFPASGSADYNEKFEGRVTMTTDTSTSTAYMELRSLRSDDTAVYYCARGGGGFAYWGQGTLVTVSS
VL: DIQMTQSPSSLSASVGDRVTITCRTSENIYSYLAWYQQKPGKAPKLLIYNAKTLAEGVPSRFSGSGSGTDFTLTISSLQPEDFATYYCQHHYGIPFTFGQGTKVEIKR
notes: also called positive control IgG

IC50 (experiment of FIG. 19), hIL-23-induced proliferation of Ba/F3 cells expressing hIL-23R and hIL-12Rβ1 (human IL-23 [4]): 0.22 nM
IC50 (three independent experiments), hIL-23-induced proliferation of Ba/F3 cells expressing hIL-23R and hIL-12Rβ1 (human IL-23 [4]): 0.41 nM
B8: ABD fusion (SEQ ID NO: 42) (designed binder)
chain: QDSTSDLIPAPPLSKVPLQQNFQDNQFHGKWYVVGEAGNLLLREDKDPRKMTATIYELKEDKSYNVTRVEFGVKTYKYQIGTFVPGSQPGEFTLGGIKSMPGMTSFLVRVVSTNYNQHAMVFFKYVYQNREYFEITLYGRTKELTSELKENFIRFSKSLGLPENHIVFPVPIDQAIDGSAGAVDANSLAEAKVLANRELDKYGVSDYYKNLINNAKTVEGVKALIDEILAALP
